B1: KIF20A 55–665 (domain or fragment, mouse, UniProt P97329 55-665, looked up)
chain: ALLEDTSEKVKVYLRIRPFLTSELDRQEDQGCVCIENTETLVLQAPKDSFALKSNERGVGQATHKFTFSQIFGPEVGQVAFFNLTMKEMVKDVLKGQNWLIYTYGVTNSGKTYTIQGTSKDAGILPQSLALIFNSLQGQLHPTPDLKPLLSNEVIWLDSKQIRQEEMKKLSLLIGGLQEEELSTSVKKRVHTESRIGASNSFDSGVAGLSSTSQFTSSSQLDETSQLWAQPDTVPVSVPADIRFSVWISFFEIYNELLYDLLEPPSHQHKRQTLRLCEDQNGNPYVKDLNWIHVRDVEEAWKLLKVGRKNQSFASTHMNQQSSRSHSIFSIRILHLQGEGDIVPKISELSLCDLAGSERCKHQKSGERLKEAGNINTSLHTLGRCIAALRQNQQNRSKQNLIPFRDSKLTRVFQGFFTGRGRSCMIVNVNPCASTYDETLHAAKFSALASQLVHAPPVHLGIPSLHSFIKKHSPQVGPGLEKEDKADSDLEDSPEDEADVSVYGKEELLQVVEAMKALLLKERQEKLQLEIQLREEICNEMVEQMQQREQWCSERLDNQKELMEELYEEKLKILKESLTTFYQEQIQERDEKIEELETLLQEAKQQPAAQQ
notes: source: E. coli NiCO21 (DE3), purified (chitin resin, HisTrap HP, size-exclusion chromatography)
B2: KIF20A 25–665 (domain or fragment, mouse, UniProt P97329 25-665, looked up)
chain: ESTAADLRSVVRKDLLSDCSVISASLEDKQALLEDTSEKVKVYLRIRPFLTSELDRQEDQGCVCIENTETLVLQAPKDSFALKSNERGVGQATHKFTFSQIFGPEVGQVAFFNLTMKEMVKDVLKGQNWLIYTYGVTNSGKTYTIQGTSKDAGILPQSLALIFNSLQGQLHPTPDLKPLLSNEVIWLDSKQIRQEEMKKLSLLIGGLQEEELSTSVKKRVHTESRIGASNSFDSGVAGLSSTSQFTSSSQLDETSQLWAQPDTVPVSVPADIRFSVWISFFEIYNELLYDLLEPPSHQHKRQTLRLCEDQNGNPYVKDLNWIHVRDVEEAWKLLKVGRKNQSFASTHMNQQSSRSHSIFSIRILHLQGEGDIVPKISELSLCDLAGSERCKHQKSGERLKEAGNINTSLHTLGRCIAALRQNQQNRSKQNLIPFRDSKLTRVFQGFFTGRGRSCMIVNVNPCASTYDETLHAAKFSALASQLVHAPPVHLGIPSLHSFIKKHSPQVGPGLEKEDKADSDLEDSPEDEADVSVYGKEELLQVVEAMKALLLKERQEKLQLEIQLREEICNEMVEQMQQREQWCSERLDNQKELMEELYEEKLKILKESLTTFYQEQIQERDEKIEELETLLQEAKQQPAAQQ
notes: as for B1
B3: KIF20A 1–665 (His-tagged dimeric motor construct) (domain or fragment, mouse, UniProt P97329 1-665, looked up)
chain: MSHRILSPPAGLLSDEDVVDSPILESTAADLRSVVRKDLLSDCSVISASLEDKQALLEDTSEKVKVYLRIRPFLTSELDRQEDQGCVCIENTETLVLQAPKDSFALKSNERGVGQATHKFTFSQIFGPEVGQVAFFNLTMKEMVKDVLKGQNWLIYTYGVTNSGKTYTIQGTSKDAGILPQSLALIFNSLQGQLHPTPDLKPLLSNEVIWLDSKQIRQEEMKKLSLLIGGLQEEELSTSVKKRVHTESRIGASNSFDSGVAGLSSTSQFTSSSQLDETSQLWAQPDTVPVSVPADIRFSVWISFFEIYNELLYDLLEPPSHQHKRQTLRLCEDQNGNPYVKDLNWIHVRDVEEAWKLLKVGRKNQSFASTHMNQQSSRSHSIFSIRILHLQGEGDIVPKISELSLCDLAGSERCKHQKSGERLKEAGNINTSLHTLGRCIAALRQNQQNRSKQNLIPFRDSKLTRVFQGFFTGRGRSCMIVNVNPCASTYDETLHAAKFSALASQLVHAPPVHLGIPSLHSFIKKHSPQVGPGLEKEDKADSDLEDSPEDEADVSVYGKEELLQVVEAMKALLLKERQEKLQLEIQLREEICNEMVEQMQQREQWCSERLDNQKELMEELYEEKLKILKESLTTFYQEQIQERDEKIEELETLLQEAKQQPAAQQ
notes: source: E. coli NiCO21 (DE3), purified (chitin resin, HisTrap HP, size-exclusion chromatography); not shown: His6, C-terminal, kept

Biological target: the molecule itself
Assay: SEC-MALS; 5 mg ml^-1 of each protein injected into a Superdex 200 10/30 Increase column; MALS and refractive index

| Protein | stoichiometry N |
| --- | --- |
| B1 | 2 |
| B2 | 2 |
| B3 | 2 |
